Measured values as given in publication PMC4615246 (Nucleus, 2015).

T1: LacI-CFP-Nup53 (human, UniProt Q8NFH5 1-326)
T1 sequence: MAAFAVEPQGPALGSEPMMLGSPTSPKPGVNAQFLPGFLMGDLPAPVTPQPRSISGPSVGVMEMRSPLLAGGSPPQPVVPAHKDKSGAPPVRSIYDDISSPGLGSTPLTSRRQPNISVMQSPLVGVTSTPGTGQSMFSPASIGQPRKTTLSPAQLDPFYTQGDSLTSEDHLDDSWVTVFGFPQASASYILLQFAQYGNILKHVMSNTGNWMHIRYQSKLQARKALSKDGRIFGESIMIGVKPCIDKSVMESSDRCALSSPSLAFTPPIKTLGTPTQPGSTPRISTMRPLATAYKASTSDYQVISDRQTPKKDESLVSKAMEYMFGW

T2: LacI-CFP-Nup98 (human, UniProt P52948 1-880)
T2 sequence: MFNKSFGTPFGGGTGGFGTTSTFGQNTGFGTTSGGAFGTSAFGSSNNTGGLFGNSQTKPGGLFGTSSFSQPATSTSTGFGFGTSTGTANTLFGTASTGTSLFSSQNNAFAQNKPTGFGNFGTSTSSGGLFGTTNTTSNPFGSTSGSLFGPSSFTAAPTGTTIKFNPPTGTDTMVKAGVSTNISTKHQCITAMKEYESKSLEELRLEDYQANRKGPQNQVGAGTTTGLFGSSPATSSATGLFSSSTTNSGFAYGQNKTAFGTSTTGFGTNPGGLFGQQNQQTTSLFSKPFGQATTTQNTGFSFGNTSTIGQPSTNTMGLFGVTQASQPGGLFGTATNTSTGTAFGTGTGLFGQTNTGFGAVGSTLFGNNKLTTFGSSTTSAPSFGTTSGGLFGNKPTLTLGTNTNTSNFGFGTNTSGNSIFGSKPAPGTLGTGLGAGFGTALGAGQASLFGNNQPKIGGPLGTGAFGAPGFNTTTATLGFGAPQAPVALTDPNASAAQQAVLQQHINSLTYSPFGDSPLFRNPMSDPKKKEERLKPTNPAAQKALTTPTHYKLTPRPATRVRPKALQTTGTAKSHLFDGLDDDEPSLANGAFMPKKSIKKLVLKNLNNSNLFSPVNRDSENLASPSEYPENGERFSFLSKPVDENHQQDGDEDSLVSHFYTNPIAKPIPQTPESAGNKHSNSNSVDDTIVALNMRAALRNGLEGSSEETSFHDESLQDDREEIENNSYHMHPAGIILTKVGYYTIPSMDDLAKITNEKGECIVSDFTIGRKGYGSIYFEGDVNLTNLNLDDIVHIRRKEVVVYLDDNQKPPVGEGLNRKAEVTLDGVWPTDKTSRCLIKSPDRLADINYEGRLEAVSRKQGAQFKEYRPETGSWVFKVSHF

T3: LacI-CFP-Nup58 (human, UniProt Q9BVL2 1-599)
T3 sequence: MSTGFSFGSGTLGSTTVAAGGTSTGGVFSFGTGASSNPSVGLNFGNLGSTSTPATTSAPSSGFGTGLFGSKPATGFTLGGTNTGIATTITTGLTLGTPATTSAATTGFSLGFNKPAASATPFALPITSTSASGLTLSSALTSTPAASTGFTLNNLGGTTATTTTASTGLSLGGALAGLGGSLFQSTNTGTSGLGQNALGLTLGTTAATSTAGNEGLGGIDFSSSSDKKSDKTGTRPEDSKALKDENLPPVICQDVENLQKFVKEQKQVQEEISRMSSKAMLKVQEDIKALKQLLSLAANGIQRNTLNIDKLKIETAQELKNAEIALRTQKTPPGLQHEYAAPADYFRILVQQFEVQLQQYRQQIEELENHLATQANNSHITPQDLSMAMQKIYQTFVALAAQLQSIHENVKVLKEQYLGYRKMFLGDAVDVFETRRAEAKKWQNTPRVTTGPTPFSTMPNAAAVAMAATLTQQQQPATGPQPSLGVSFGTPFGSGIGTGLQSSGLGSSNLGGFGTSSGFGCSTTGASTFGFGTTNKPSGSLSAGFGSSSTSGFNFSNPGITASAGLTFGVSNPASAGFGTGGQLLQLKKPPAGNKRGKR


Key:
Assay in all cases: LacI/LacO array recruitment in cells
[1] = biological target: T1, LacI-CFP-Nup53
[2] = biological target: T2, LacI-CFP-Nup98
[3] = biological target: T3, LacI-CFP-Nup58

Binder | percent of transfected cells showing colocalization [1] | percent of transfected cells showing colocalization [2] | percent of transfected cells showing colocalization [3]
Nup93 (endogenous) (natural protein) MDTEGFGELLQQAEQLAAETEGISELPHVERNLQEIQQAGERLRSRTLTRTSQETADVKASVLLGSRGLDISHISQRLESLSAATTFEPLEPVKDTDIQGFLKNEKDNALLSAIEESRKRTFGMAEEYHRESMLVEWEQVKQRILHTLLASGEDALDFTQESEPSYISDVGPPGRSSLDNIEMAYARQIYIYNEKIVNGHLQPNLVDLCASVAELDDKSISDMWTMVKQMTDVLLTPATDALKNRSSVEVRMEFVRQALAYLEQSYKNYTLVTVFGNLHQAQLGGVPGTYQLVRSFLNIKLPAPLPGLQDGEVEGHPVWALIYYCMRCGDLLAASQVVNRAQHQLGEFKTWFQEYMNSKDRRLSPATENKLRLHYRRALRNNTDPYKRAVYCIIGRCDVTDNQSEVADKTEDYLWLKLNQVCFDDDGTSSPQDRLTLSQFQKQLLEDYGESHFTVNQQPFLYFQVLFLTAQFEAAVAFLFRMERLRCHAVHVALVLFELKLLLKSSGQSAQLLSHEPGDPPCLRRLNFVRLLMLYTRKFESTDPREALQYFYFLRDEKDSQGENMFLRCVSELVIESREFDMILGKLENDGSRKPGVIDKFTSDTKPIINKVASVAENKGLFEEAAKLYDLAKNADKVLELMNKLLSPVVPQISAPQSNKERLKNMALSIAERYRAQGISANKFVDSTFYLLLDLITFFDEYHSGHIDRAFDIIERLKLVPLNQESVEERVAAFRNFSDEIRHNLSEVLLATMNILFTQFKRLKGTSPSSSSRPQRVIEDRDSQLRSQARTLITFAGMIPYRTSGDTNARLVQMEVLMN | 63% | – | –
Nup62 (endogenous) (natural protein) MSGFNFGGTGAPTGGFTFGTAKTATTTPATGFSFSTSGTGGFNFGAPFQPATSTPSTGLFSLATQTPATQTTGFTFGTATLASGGTGFSLGIGASKLNLSNTAATPAMANPSGFGLGSSNLTNAISSTVTSSQGTAPTGFVFGPSTTSVAPATTSGGFSFTGGSTAQPSGFNIGSAGNSAQPTAPATLPFTPATPAATTAGATQPAAPTPTATITSTGPSLFASIATAPTSSATTGLSLCTPVTTAGAPTAGTQGFSLKAPGAASGTSTTTSTAATATATTTSSSSTTGFALNLKPLAPAGIPSNTAAAVTAPPGPGAAAGAAASSAMTYAQLESLINKWSLELEDQERHFLQQATQVNAWDRTLIENGEKITSLHREVEKVKLDQKRLDQELDFILSQQKELEDLLSPLEELVKEQSGTIYLQHADEEREKTYKLAENIDAQLKRMAQDLKDIIEHLNTSGAPADTSDPLQQICKILNAHMDSLQWIDQNSALLQRKVEEVTKVCEGRRKEQERSFRITFD | – | 8% | 100%
